Assay results taken from US20230064378A1.

Legend:
[1] = molecular target: human FcγRIIA_131R (CD32a) extracellular domain (human) (UniProt P12318); assay: SPR, antibody captured on Protein A, steady state, 25 °C
[2] = molecular target: human FcγRIIA_131H (CD32a) extracellular domain (human) (UniProt P12318); assay: as above
[3] = molecular target: human FcγRIIb (CD32b) extracellular domain (human) (UniProt P31994); assay: as above
[4] = molecular target: human FcγRIIIA_158F (CD16a) extracellular domain (human) (UniProt P08637); assay: as above
Sequence of human FcγRIIIA_158F (CD16a) extracellular domain (human) (P08637 17-208): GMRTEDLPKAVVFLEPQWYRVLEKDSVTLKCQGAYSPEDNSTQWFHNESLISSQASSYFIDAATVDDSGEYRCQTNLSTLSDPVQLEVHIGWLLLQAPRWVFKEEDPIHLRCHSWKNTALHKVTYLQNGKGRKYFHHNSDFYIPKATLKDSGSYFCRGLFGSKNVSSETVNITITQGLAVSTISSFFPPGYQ

[5] = molecular target: human FcγRI (CD64) extracellular domain (human) (UniProt P12314); assay: SPR, antibody captured on Protein A, receptor ECD as analyte, 25 °C
Sequence of human FcγRI (CD64) extracellular domain (human) (P12314 16-292): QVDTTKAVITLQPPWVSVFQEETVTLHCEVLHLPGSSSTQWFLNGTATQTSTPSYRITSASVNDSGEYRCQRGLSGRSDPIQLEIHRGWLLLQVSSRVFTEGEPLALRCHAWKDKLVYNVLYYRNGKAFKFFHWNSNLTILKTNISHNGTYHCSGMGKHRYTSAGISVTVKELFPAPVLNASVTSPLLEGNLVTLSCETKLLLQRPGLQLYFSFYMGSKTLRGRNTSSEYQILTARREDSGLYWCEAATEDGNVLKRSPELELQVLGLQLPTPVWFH

[6] = molecular target: human FcγRIIIA_158V (CD16a) extracellular domain (human) (UniProt P08637); assay: SPR, antibody captured on Protein A, steady state, 25 °C
Sequence of human FcγRIIIA_158V (CD16a) extracellular domain (human) (P08637 17-208 F176V): as the sequence (P08637 17-208) above, with F160V counted along it

Sequence of human FcγRIIA_131R (CD32a) extracellular domain (human) (P12318 34-217 H167R): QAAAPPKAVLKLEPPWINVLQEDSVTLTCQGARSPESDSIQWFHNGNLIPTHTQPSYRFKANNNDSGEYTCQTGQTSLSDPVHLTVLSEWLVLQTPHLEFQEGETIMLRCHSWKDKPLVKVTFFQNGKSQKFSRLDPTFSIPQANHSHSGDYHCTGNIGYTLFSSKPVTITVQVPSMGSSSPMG
Sequence of human FcγRIIb (CD32b) extracellular domain (human) (P31994 43-217): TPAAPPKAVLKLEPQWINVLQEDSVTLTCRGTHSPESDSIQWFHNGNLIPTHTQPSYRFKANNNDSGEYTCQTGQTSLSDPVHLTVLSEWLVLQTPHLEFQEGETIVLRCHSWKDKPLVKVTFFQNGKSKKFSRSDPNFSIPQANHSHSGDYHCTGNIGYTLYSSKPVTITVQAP
Sequence of human FcγRIIA_131H (CD32a) extracellular domain (human) (P12318 34-217): as the sequence (P12318 34-217 H167R) above, with R134H counted along it

Kd [1] | Kd [2] | Kd [3] | Kd [4] | Kd [5] | Kd [6] | Substance
740 nM | 680 nM | 3110 nM | 1290 nM | 0.0521 nM | – | Hu IgG1 (antibody)
2310 nM | 5310 nM | 2780 nM | – | 0.419 nM | 7350 nM | Hu IgG4 SP (antibody)
